Data as given in patent US20140343095A1, “Methods of Diagnosing and Treating Multiple Sclerosis” (The Brigham and Women's Hospital, Inc., priority 2009, published 2014).

Tested on: PARP-1
Assay: FACS PARP-1 activity in innate and adaptive immune cells treated with HSP60 or 15-HC
Format: cell-based, human
Conditions: CD4+ T cells, CD8+ T cells, B cells of healthy controls; HSP60 1, 5, 10 ng/ml; 15-HC 1, 5, 10 ug/ml
Source text: FIGS. 17A-C are bar graphs showing that 15-HC, but not HSP60, activates PARP-1 in cells of the innate immune system. Mean PARP-1 activity as determined by FACS in classical monocytes (17A), inflammatory monocytes (17B) and dendritic cells (17C) of healthy controls (HC) treated with activated with HSP60, 15-HC or left untreated. The data are shown as mean fluorescence intensity (MFI)±SD of 5 samples/group.
FIGS. 18A-C are bar graphs showing that both 15-HC and HSP60 activate PARP-1 in cells of the adaptive immune system. Mean PARP-1 activity as determined by FACS in CD4+ T cells (18A), CD8+ T cells (18B) and B cells (18C) of healthy controls (HC) treated with activated with HSP60, 15-HC or left untreated. The data are shown as mean fluorescence intensity (MFI)±SD of 5 samples/group.
A new FACS-based method was developed to detect PARP-1 activation based on the intracellular detection of the PARP-1 product PAR with specific antibodies. Briefly, the cells were incubated with antibodies to CD16/32 to block unspecific antibody binding, and then stained for surface markers. […] The samples were then analyzed by FACS.
To investigate whether the increased activity of the TLR2/PARP-1 axis in SPMS patients resulted from increased levels of TLR2 ligands, the levels of 15-HC and HSP60 were measured in serum samples from healthy controls, RRMS and SPMS patients. […]

B1: HSP60: TLR2 agonist HSP60 (protein, UniProt P10809 27-573, looked up)
60 kDa heat shock protein, …: AKDVKFGADARALMLQGVDLLADAVAVTMGPKGRTVIIEQSWGSPKVTKDGVTVAKSIDLKDKYKNIGAKLVQDVANNTNEEAGDGTTTATVLARSIAKEGFEKISKGANPVEIRRGVMLAVDAVIAELKKQSKPVTTPEEIAQVATISANGDKEIGNIISDAMKKVGRKGVITVKDGKTLNDELEIIEGMKFDRGYISPYFINTSKGQKCEFQDAYVLLSEKKISSIQSIVPALEIANAHRKPLVIIAEDVDGEALSTLVLNRLKVGLQVVAVKAPGFGDNRKNQLKDMAIATGGAVFGEEGLTLNLEDVQPHDLGKVGEVIVTKDDAMLLKGKGDKAQIEKRIQEIIEQLDVTTSEYEKEKLNERLAKLSDGVAVLKVGGTSDVEVNEKKDRVTDALNATRAAVEEGIVLGGGCALLRCIPALDSLTPANEDQKIGIEIIKRTLKIPAMTIAKNAGVEGSLIVEKIMQSSSEVGYDAMAGDFVNMVEKGIIDPTKVVRTALLDAAGVASLLTTAEVVVTEIPKEEKDPGMGAMGGMGGGMGGGMF
  PARP-1 activation in cells of the adaptive immune system (FIG. 18): could activate
